Data on five compounds can be found in patent US10799462B2, “Peptide-polypeptide co-assembled nanoparticles for drug delivery” (B. G. Negev Technologies and Applications Ltd., at …, priority 2014, dated 2020).

One data set relates to Saos2 cells. Kind of data set: XTT cell viability (cytotoxicity). The format is cell-based. The following applies: Homo sapiens, SAOS-2; Saos2 cultures; results not shown. The procedure: The cytotoxicity of coated nanoparticles was assessed by monitoring the viability of Saos2 cells in presence of the NPs. All cell cultured were carried in air supplemented with 5% CO2 at 37° C. In 24 wells plate, 3*10^4 cells/well were seeded, in DMEM complete medium and cultured for 4 h. The cells were supplemented with different concentrations of LND-NPs, control NPs, or free LND and cultured overnight. Cells viability was determined by XTT assay following the manufacturer instructions (Life Technologies, California, USA). The XTT solution was added to the wells and cells were incubated for 4 hr after which the absorbance of the samples was measured at 490 nm, by a microplate-reader (BioTek instruments, Winoosky, Vt.). Cells viability is reported as percentage compared to untreated cultured cells.
In general terms: Tetrazolium dyes change colour on reduction, which living cells bring about.

Data set [1] in a line: Dynamic light scattering (DLS) particle radius. The format is physicochemical. As to conditions: for Rh* (most common radius measured at 90° using DLS): γ-PGA alone or peptide/γ-PGA NPs 1:1 w/w, n = 9; for Rh: n = 4. The procedure: (§1) NPs diameter was measured by dynamic light scattering (DLS) (CGS-3 LSE-5003, ALV, Langen, Germany) at different angles of the detector (90, 60 and 30 degrees) and by Small angle X-ray scattering (SAXS) (SAXLAB's GANESHA 300 XL, Skovlunde, Denmark) Sealed Tube Generator: Cu-Ka 0.154 nm (Genix 3D) equipped with a 2D detector (Pilatus 300k). Surface charge was measured by Zetasizer (Zetasizer Nano ZS, Malvern, Worcestershire, UK) and subsequently the data was analyzed using the Smoluchowski model.

Data set [2] is described as follows: Zeta potential / surface charge by Zetasizer (Smoluchowski model). The format is physicochemical. The following applies: for ξ zeta potential: n = 4. The procedure: as §1
A short description of data set [3]: Circular dichroism (CD) secondary structure. The data set is classed as physicochemical. The following applies: for change of CD pattern on mixing with γ-PGA: peptide:γ-PGA 0.25:0.25 mg/ml. The procedure: CD measurements were performed to characterize secondary structure of peptides in the NPs solution. Spectra in the range of 190-260 nm were recorded at room temperature on CD spectropolarimeter (J-715, Jasco, Tokyo, Japan), using a 1-mm quartz cuvette.
(In general: Circular dichroism is widely used to follow secondary structure.)

The mark [4] stands for this setting: γ-PGA alone or peptide/γ-PGA NPs 1:1 w/w, n = 9.
Setting [5] is: γ-PGA/PFK NPs coated with the peptide, coating solution 0.1 mg/ml.
Setting [6] is: γ-PGA/PFK NPs coated with the peptide, coating solution 0.5 mg/ml.
Setting [7] is: NPs coated with PFK 0.1 mg/ml, single or repeated addition.
Setting [8] is: PFK alone or PFK/γ-PGA NPs at different PFK:γ-PGA weight ratios, n = 3.

For `O=C(O)c1nn(Cc2ccc(Cl)cc2Cl)c2ccccc12` [free LND, Lonidamine], in the data set with Saos2 cells, the IC50 (in general, the concentration at which inhibition is half-maximal) stood at 1300 µM.
On to “FK(FK)5F (FKFKFKFKFKFKF) [free termini version of the amphiphilic peptide]”, for which the “Rh* (most common radius measured at 90° using DLS)” value (from here on “Rh*”) in data set [1] is on record as 7.41 ± 1.7 nm. The compound further displayed a ζ zeta potential in data set [2] (setting [4]) of −43.71 ± 9.2 mV. In addition, in data set [3], the “change of CD pattern on mixing with γ-PGA” value (from here on “change of CD pattern”) is given as “most pronounced shift to β-sheet structure”.
Regarding “KFFFKKFFKFFKK [rFK, scrambled order control of FK]”, the “Rh*” value in data set [1] stood at 6.45 ± 1.2 nm. This compound also returned a ζ zeta potential in data set [2] (setting [4]) of −38.78 ± 3.92 mV. The “change of CD pattern” value in data set [3] was “primarily the Phe-Phe side chain type of absorption”.
In the case of “KFFPKKPFKFFKK [rPFK, scrambled order control of PFK]”, in data set [1], the “Rh*” value was found to be 9.57 ± 6 nm. The Rh is given as 11.04 ± 7.77 nm in data set [1] (setting [5]) and 9.72 ± 1.03 nm in data set [1] (setting [6]). In data set [2] (setting [4]), this compound displayed a ζ zeta potential of −25.26 ± 8.79 mV. Besides, the ξ zeta potential in data set [2] (setting [5]) is −37.26 ± 7.03 mV; in data set [2] (setting [6]), −36.0 ± 2.69 mV. For the same compound, the “change of CD pattern” value in data set [3] is “almost no change in its CD pattern”.
Turning to “PK(FK)5P (PKFKFKFKFKFKP) [PFK, proline capped amphiphilic cationic 13-residue peptide]”, the Rh was determined as 9.8 ± 0.23 nm in data set [1] (setting [7]), 9.8 ± 0.23 nm in data set [1] (setting [5]) and 52.2 ± 50.63 nm in data set [1] (setting [6]). Moreover, in data set [1] (setting [8]), the “Radius (Rh, DLS at 90°)” value is “Non spherical NPs”. Besides, in data set [1], the “Rh*” value is listed as 11.4 ± 2 nm. For the same compound, the ξ zeta potential is recorded as −33.52 ± 3.11 mV in data set [2] (setting [7]), −33.52 ± 3.11 mV in data set [2] (setting [5]) and −35.42 ± 4.5 mV in data set [2] (setting [6]). For the same compound, the ζ zeta potential in data set [2] (setting [8]) is listed as 11.6 ± 5 mV; in data set [2] (setting [4]), −49.3 ± 2 mV. Moreover, the “θ215/θ203 (β-sheet relative to unfolded) as function of pH” value in data set [3] (PFK alone or 1:1 w/w with γ-PGA) was “steep increase in θ215/θ203 value at pH˜8”. The “change of CD pattern” value in data set [3] is on record as “most pronounced shift to β-sheet structure”.
